Data taken from publication PMC5765368, “Large-Scale Low-Cost NGS Library Preparation Using a Robust Tn5 Purification and Tagmentation Protocol”.
One block for each molecule: values may come before it.

Columns and labels:
[1] = target: Tn5 transposase, hyperactive allele carrying the E54K and L372P mutations; assay: SEC; untagged Tn5 on Superdex200 Increase 10/300 GL (Superdex200 10/300 GL at BZH) in 50 mM Tris pH 7.5, 800 mM NaCl, 0.2 mM EDTA, 2 mM DTT, 10% glycerol; last step of the purification
[2] = target: Tn5 transposase, hyperactive allele carrying the R27S, E54K and L372P mutations; assay: as above
[3] = target: Tn5 transposase R27S,E54K,L372P (bacterial transposon Tn5 (expressed in …, UniProt Q46731 1-476, R27S;E54K;L372P)); assay: ITC; ITC: 50 mM Tris pH 7.5, 800 mM NaCl, 0.1 mM EDTA, 5% glycerol, 25 C; 100 uM DNA titrated into 4 uM protein; details: protein: recombinant; tags: His6-Sumo3 removed by SenP2; one extra N-terminal Ser remains; chain copies: 2; 19 bp duplex with 5' overhang (14 nt for ME-A, 15 nt for ME-B)
[4] = target: Tn5 transposase E54K,L372P (hyperactive) (bacterial transposon Tn5 (expressed in …, UniProt Q46731 1-476, E54K;L372P)); assay: as above; details: protein: recombinant; tags: His6-Sumo3 removed by SenP2; one extra N-terminal Ser remains; chain copies: 2; 19 bp duplex with 5' overhang (14 nt for ME-A, 15 nt for ME-B)

stoichiometry N [1]: 2
Molecule: Tn5 transposase, hyperactive allele carrying the E54K and L372P mutations (enzyme)

stoichiometry N [2]: 2
Molecule: Tn5 transposase, hyperactive allele carrying the R27S, E54K and L372P mutations (enzyme)

B1: annealed Tn5 linker oligonucleotide (mosaic end); Tn5ME-A/Tn5MErev or Tn5ME-B/Tn5MErev, not stated which (dsDNA)
DNA 1: TCGTCGGCAGCGTCAGATGTGTATAAGAGACAG
DNA 2: CTGTCTCTTATACACATCT
modifications: 5' phosphate on Tn5MErev
Kd [3]: 12.9 ± 2.1 µM
Kd [4]: 0.5 ± 0.09 µM
